Assay [1] deals with T1, human CD123 expressed on cells (human, UniProt P26951 19-378). The experiment in a line: cell-based or functional assay.
Assay [2] deals with human CD123 (human, UniProt P26951 19-378). The experiment in a line: cell-based or functional assay.
For assay [3], the target named is T2, recombinant human CD123 protein (R&D Systems, 301-R3/CF) (human, UniProt P26951 19-305).
T2 construct: Bought recombinant His-tagged extracellular domain of human CD123; also called recombinant CD123; in house biotinylated-CD123 recombinant protein; not shown: His tag of the bought protein
T2 sequence: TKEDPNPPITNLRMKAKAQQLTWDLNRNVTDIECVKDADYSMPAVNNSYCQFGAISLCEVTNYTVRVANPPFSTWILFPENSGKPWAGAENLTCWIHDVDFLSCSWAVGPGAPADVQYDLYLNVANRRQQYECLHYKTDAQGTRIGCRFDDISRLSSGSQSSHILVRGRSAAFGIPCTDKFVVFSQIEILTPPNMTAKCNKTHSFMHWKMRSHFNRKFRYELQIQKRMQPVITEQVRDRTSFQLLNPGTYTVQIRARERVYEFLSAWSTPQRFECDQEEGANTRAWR
Put plainly: SPR (ProteOn XPR36), CD123 immobilized.

Assay [4] concerns the target T1, human CD123 expressed on cells. Put plainly: cell-based or functional assay. This is another data set of the same source.
Assay [5] has as its target cynomolgus TCR/CD3 expressed on cells (cynomolgus). Put plainly: cell-based or functional assay.
In assay [6] the target is T1, human CD123 expressed on cells. The experiment in a line: cell-based or functional assay. This is another data set of the same source.
For assay [7], the target named is T2, recombinant human CD123 protein (R&D …). Put plainly: SPR (ProteOn XPR36), CD123 immobilized; values only indicative (incomplete regeneration).
Assay [8] addresses T1, human CD123 expressed on cells. Put plainly: flow cytometry competition, CHO Flp-In huCD123 cells, competitor A0110056A10-Alexa647 (0.9 nM). For orientation: In flow cytometry, cells or beads pass a laser one at a time.
Assay [9] has the same target. Put plainly: flow cytometry competition, MOLM-13 cells, competitor A0110056A10-Alexa647 (0.4 nM).
Assay [10] deals with T3, cynomolgus CD123 expressed on HEK Flp-In cells (cynomolgus).
T3 construct: EHH61867.1; also called cyCD123; cyno CD123
T3 chain: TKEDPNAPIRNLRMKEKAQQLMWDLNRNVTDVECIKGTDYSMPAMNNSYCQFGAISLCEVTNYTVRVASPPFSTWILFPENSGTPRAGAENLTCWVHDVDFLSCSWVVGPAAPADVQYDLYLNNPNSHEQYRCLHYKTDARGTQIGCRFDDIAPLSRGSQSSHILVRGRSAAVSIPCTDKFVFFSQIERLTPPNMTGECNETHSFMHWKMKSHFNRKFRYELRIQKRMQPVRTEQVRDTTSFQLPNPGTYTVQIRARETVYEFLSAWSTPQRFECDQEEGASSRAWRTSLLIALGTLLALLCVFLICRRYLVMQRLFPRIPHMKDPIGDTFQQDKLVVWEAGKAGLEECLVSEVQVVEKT
The experiment in a line: flow cytometry competition, HEK Flp-In cyCD123 cells, competitor A0110056A10-Alexa647 (0.9 nM).

The values below come from patent US20240199740A1 (Ablynx, published 2024).

B1: T017000134 (bispecific antibody)
chain: VQLVESGGGLVQAGGSLRLSCAASGITSKINDMGWYRQTPGNYREWVASITATGTTNYRDSVKGRFTISRDNAKSTVYLQMNSLKPEDTTVYYCNTFPPISNFWGQGTLVTVSSGGGGSGGGGSGGGGSGGGGSGGGGSGGGGSGGGGSEVQLVESGGGLVQPGGSLRLSCVASGDVHKINFLGWYRQAPGKEREKVAHISIGDQTDYADSAKGRFTISRDESKNMVYLQMNSLKPEDTAVYFCRAFSRIYPYDYWGQGTLVTVSSGGGGSGGGGSGGGGSGGGGSGGGGSGGGGSGGGGSEVQLVESGGGLVQAGGPLRLSCAASGRTFSSYVMGWFRQAPGKEREFVAAIYWSNGKTQYTDSVKGRFTISGDNAKNTVYLQMNSLNPEDTAVYYCVADKDETGFRTLPIAYDYWGQGTLVTVSSA
For the molecule B1, in [1], the “% lysis, redirected human T cell mediated killing of MOLM-13 cells, flow cytometry, E:T 10:1” value is 9% and the “EC50 (M), redirected human T cell mediated killing of MOLM-13 cells, flow cytometry, E:T 10:1” value worked out at 3e-10 M.

B2: T017000128 (bispecific antibody)
chain: DVQLVESGGGLVQPGGSLRLSCVASGDVHKINFLGWYRQAPGKEREKVAHISIGDQTDYADSAKGRFTISRDESKNMVYLQMNSLKPEDTAVYFCRAFSRIYPYDYWGQGTLVTVSSGGGGSGGGGSGGGGSGGGGSGGGGSGGGGSGGGGSEVQLVESGGGLVQAGGSLRLSCAASGITSKINDMGWYRQTPGNYREWVASITATGTTNYRDSVKGRFTISRDNAKSTVYLQMNSLKPEDTTVYYCNTFPPISNFWGQGTLVTVSSA
In the case of B2, in assay [2], the “% lysis, redirected cynomolgus T cell mediated killing of KG1a cells, flow cytometry, E:T 10:1” value worked out at 32%; the “% lysis, redirected human T cell mediated killing of KG1a cells, flow cytometry, E:T 10:1” value stood at 55%; the “EC50 (M), redirected cynomolgus T cell mediated killing of KG1a cells, flow cytometry, E:T 10:1” value came out at 2.8e-10 M; the “EC50 (M), redirected human T cell mediated killing of KG1a cells, flow cytometry, E:T 10:1” value was 3.1e-10 M.

B3: T017000114 (bispecific antibody)
chain: EVQLVESGGGLVQAGGPLRLSCAASGRTFSSYVMGWFRQAPGKEREFVAAIYWSNGKTQYTDSVKGRFTISGDNAKNTVYLQMNSLNPEDTAVYYCVADKDETGFRTLPIAYDYWGQGTLVTVSSGGGGSGGGGSGGGGSGGGGSGGGGSGGGGSGGGGSEVQLVESGGGLVQAGGSLRLSCAASGITSKINDMGWYRQTPGNYREWVASITATGTTNYRDSVKGRFTISRDNAKSTVYLQMNSLKPEDTTVYYCNTFPPISNFWGQGTLVTVSSGGGGSGGGGSGGGGSGGGGSGGGGSGGGGSGGGGSEVQLVESGGGLVQPGGSLRLSCVASGDVHKINFLGWYRQAPGKEREKVAHISIGDQTDYADSAKGRFTISRDESKNMVYLQMNSLKPEDTAVYFCRAFSRIYPYDYWGQGTLVTVSS
notes: Multispecific Nanobody polypeptide expressed in Pichia; also called A0110055F03-35GS-A0110056A10-35GS-T0170056G05-FLAG3-HIS6; not shown: C-terminal FLAG3-HIS6 tag
What is called Kd is the concentration at which binding is half-saturated. For orientation: koff means a measure of how fast the partners let go of each other. In general, kon refers to a measure of how fast the partners come together. In the case of B3, in [3], the dissociation constant Kd turned out to be 2.3 nM, the koff was 0.00019 s⁻¹ and the kon came out at 84000 M⁻¹ s⁻¹. In assay [4], the “% lysis, killing of MOLM-13 cells by non-activated human T cells, E:T ratio 2:1” value amounted to 10%; the “% lysis, killing of MOLM-13 cells by non-activated human T cells, E:T ratio 8:1” value was determined as 12%; the “% lysis, killing of MOLM-13 cells by pre-activated human T cells, E:T ratio 1:2” value came to 18%; the “% lysis, killing of MOLM-13 cells by pre-activated human T cells, E:T ratio 2:1” value came out at 31%. In [4], the “% lysis, killing of MOLM-13 cells by pre-activated human T cells, E:T ratio 8:1” value was found to be 43%; the “EC50 (M), killing of MOLM-13 cells by non-activated human T cells, E:T ratio 2:1” value is 1.9e-09 M; the “EC50 (M), killing of MOLM-13 cells by non-activated human T cells, E:T ratio 8:1” value is 1.4e-09 M; the “EC50 (M), killing of MOLM-13 cells by pre-activated human T cells, E:T ratio 1:2” value came out at 1e-09 M. Besides, in [4], the “EC50 (M), killing of MOLM-13 cells by pre-activated human T cells, E:T ratio 2:1” value came out at 6.8e-10 M and the “EC50 (M), killing of MOLM-13 cells by pre-activated human T cells, E:T ratio 8:1” value was 2.4e-10 M. Also, in [5], the “% lysis, redirected cyno T cell mediated killing of KG1a cells, flow cytometry” value was found to be 7% and the “EC50 (M), redirected cyno T cell mediated killing of KG1a cells, flow cytometry” value came out at 1.9e-10 M. In addition, in [6], the “% lysis, redirected human T cell mediated killing of KG1a cells, flow cytometry, E:T 10:1” value is 7% and the “EC50 (M), redirected human T cell mediated killing of KG1a cells, flow cytometry, E:T 10:1” value is 2.4e-10 M.

B4: T017000120 (bispecific antibody)
chain: EVQLVESGGGSVQAGGSLRLSCAASGYTIGPYCMGWFRQAPGKEREGVAAINMGGGITYYADSVKGRFTISQDNAKNTVYLLMNSLEPEDTAIYYCAADSTIYASYYECGHGLSTGGYGYDSWGQGTLVTVSSGGGGSGGGGSGGGGSGGGGSGGGGSGGGGSGGGGSEVQLVESGGGLVQAGGPLRLSCAASGRTFSSYVMGWFRQAPGKEREFVAAIYWSNGKTQYTDSVKGRFTISGDNAKNTVYLQMNSLNPEDTAVYYCVADKDETGFRTLPIAYDYWGQGTLVTVSSGGGGSGGGGSGGGGSGGGGSGGGGSGGGGSGGGGSEVQLVESGGGLVQPGGSLRLSCVASGDVHKINFLGWYRQAPGKEREKVAHISIGDQTDYADSAKGRFTISRDESKNMVYLQMNSLKPEDTAVYFCRAFSRIYPYDYWGQGTLVTVSS
notes: Multispecific Nanobody polypeptide expressed in Pichia; also called cAbLys3(D1E,Q5V,A6E,Q108L)-35GS-A0110055F03-35GS-T0170056G05-FLAG3-HIS6; not shown: C-terminal FLAG3-HIS6 tag
For B4, in assay [7], the Kd came to 170 nM, the koff turned out to be 0.0025 s⁻¹ and the kon came to 15000 M⁻¹ s⁻¹.

B5: T017000113 (bispecific antibody)
chain: EVQLVESGGGLVQAGGPLRLSCAASGRTFSSYVMGWFRQAPGKEREFVAAIYWSNGKTQYTDSVKGRFTISGDNAKNTVYLQMNSLNPEDTAVYYCVADKDETGFRTLPIAYDYWGQGTLVTVSSGGGGSGGGGSGGGGSGGGGSGGGGSGGGGSGGGGSEVQLVESGGGSVQAGGSLRLSCAASGYTIGPYCMGWFRQAPGKEREGVAAINMGGGITYYADSVKGRFTISQDNAKNTVYLLMNSLEPEDTAIYYCAADSTIYASYYECGHGLSTGGYGYDSWGQGTLVTVSSGGGGSGGGGSGGGGSGGGGSGGGGSGGGGSGGGGSEVQLVESGGGLVQPGGSLRLSCVASGDVHKINFLGWYRQAPGKEREKVAHISIGDQTDYADSAKGRFTISRDESKNMVYLQMNSLKPEDTAVYFCRAFSRIYPYDYWGQGTLVTVSS
notes: Multispecific Nanobody polypeptide expressed in Pichia; also called A0110055F03-35GS-cAbLys3(D1E,Q5V,A6E,Q108L)-35GS-T0170056G05-FLAG3-HIS6; not shown: C-terminal FLAG3-HIS6 tag
Regarding B5, in [3], the Kd came to 160 nM, the off-rate (koff) was 0.0032 s⁻¹ and the kon was found to be 20000 M⁻¹ s⁻¹.

B6: T017000115 (bispecific antibody)
chain: EVQLVESGGGLVQAGGSLRLSCAASGITSKINDMGWYRQTPGNYREWVASITATGTTNYRDSVKGRFTISRDNAKSTVYLQMNSLKPEDTTVYYCNTFPPISNFWGQGTLVTVSSGGGGSGGGGSGGGGSGGGGSGGGGSGGGGSGGGGSEVQLVESGGGSVQAGGSLRLSCAASGYTIGPYCMGWFRQAPGKEREGVAAINMGGGITYYADSVKGRFTISQDNAKNTVYLLMNSLEPEDTAIYYCAADSTIYASYYECGHGLSTGGYGYDSWGQGTLVTVSSGGGGSGGGGSGGGGSGGGGSGGGGSGGGGSGGGGSEVQLVESGGGLVQPGGSLRLSCVASGDVHKINFLGWYRQAPGKEREKVAHISIGDQTDYADSAKGRFTISRDESKNMVYLQMNSLKPEDTAVYFCRAFSRIYPYDYWGQGTLVTVSS
notes: Multispecific Nanobody polypeptide expressed in Pichia; also called A0110056A10-35GS-cAbLys3(D1E,Q5V,A6E,Q108L)-35GS-T0170056G05-FLAG3-HIS6; not shown: C-terminal FLAG3-HIS6 tag
With B6, in assay [7], the Kd turned out to be 1.5 nM, the koff came to 0.00051 s⁻¹ and the kon worked out at 330000 M⁻¹ s⁻¹.

B7: T017000121 (bispecific antibody)
chain: EVQLVESGGGSVQAGGSLRLSCAASGYTIGPYCMGWFRQAPGKEREGVAAINMGGGITYYADSVKGRFTISQDNAKNTVYLLMNSLEPEDTAIYYCAADSTIYASYYECGHGLSTGGYGYDSWGQGTLVTVSSGGGGSGGGGSGGGGSGGGGSGGGGSGGGGSGGGGSEVQLVESGGGLVQAGGSLRLSCAASGITSKINDMGWYRQTPGNYREWVASITATGTTNYRDSVKGRFTISRDNAKSTVYLQMNSLKPEDTTVYYCNTFPPISNFWGQGTLVTVSSGGGGSGGGGSGGGGSGGGGSGGGGSGGGGSGGGGSEVQLVESGGGLVQPGGSLRLSCVASGDVHKINFLGWYRQAPGKEREKVAHISIGDQTDYADSAKGRFTISRDESKNMVYLQMNSLKPEDTAVYFCRAFSRIYPYDYWGQGTLVTVSS
notes: Multispecific Nanobody polypeptide expressed in Pichia; also called cAbLys3(D1E,Q5V,A6E,Q108L)-35GS-A0110056A10-35GS-T0170056G05-FLAG3-HIS6; not shown: C-terminal FLAG3-HIS6 tag
As a reminder, the IC50 is the concentration that inhibits the measured activity by half. High values mean weaker potency, low ones greater potency. B7 showed an IC50 in assay [8] of 23 nM. In [3], the Kd amounted to 22 nM, the koff is 0.00086 s⁻¹ and the kon worked out at 40000 M⁻¹ s⁻¹. Besides, the concentration for half-maximal inhibition (IC50) in [9] is 26 nM. Also, the IC50 in assay [10] was 110 nM.
